Values belong to the molecule of their own block, whether it stands above or below them.
How the values were obtained:
STRADα = molecular target: T1, STRADα (Homo sapiens, UniProt Q7RTN6); experiment: TNP-ATP saturation binding (fluorescence); details: STRADα alone
T1 construct: wild-type and mutant forms of STRADα (residues 54–431) and MO25α (residues 1–341) were expressed individually as GST fusion proteins in E. coli; GST (cleaved yes); made in house; host or cells: E. coli
T1 sequence (Q7RTN6 54-431): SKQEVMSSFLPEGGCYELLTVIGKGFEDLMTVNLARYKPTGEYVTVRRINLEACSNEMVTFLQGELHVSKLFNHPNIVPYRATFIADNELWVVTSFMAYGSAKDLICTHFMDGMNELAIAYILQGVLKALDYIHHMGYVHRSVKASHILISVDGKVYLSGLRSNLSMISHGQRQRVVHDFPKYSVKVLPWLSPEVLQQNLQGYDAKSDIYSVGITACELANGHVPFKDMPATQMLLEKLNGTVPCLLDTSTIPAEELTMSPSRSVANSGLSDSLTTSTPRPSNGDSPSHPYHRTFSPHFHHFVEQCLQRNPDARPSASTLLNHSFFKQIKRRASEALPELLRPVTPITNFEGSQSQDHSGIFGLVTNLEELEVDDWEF
Protocol: (§1) Fluorescent measurements of TNP-ATP (Molecular Probes), were obtained at 25°C in assay buffer (with the addition of 0.5–1.0 mM MgCl2 where indicated) using 1-cm pathlength cuvettes in a VARIAN Cary Eclipse Fluorescence spectrophotometer (Varian). Fluorescence was recorded using a 410-nm/540-nm excitation/emission wavelengths from 500 to 600 nm. In all cases, signal from the TNP-ATP buffer control was subtracted as background. For all binding studies, STRADα and STRADα mutants were assayed at 2 µM. In cases where STRADα/MO25α complexes were assayed, wild-type or mutant MO25α (2 µM) were preincubated for at least 2 h at 4°C prior to a fluorescence binding experiment. For saturation binding experiments, concentrated stocks of TNP-ATP were added stepwise, covering a range of concentrations from 0.05 to 30 µM. For displacement experiments, the concentration of TNP-ATP was fixed at 5 µM, and ATP or ADP was titrated in, covering a range of concentrations from 0.05 to 500 µM.
(§2) All data were analysed using GraphPad-PRISM software (http://www.graphpad.com). […] In the displacement studies, equilibrium constant values for ATP and ADP were calculated by first determining the logEC50 value, using a standard dose-response equation: F x/F max = minimum+(maximum−minimum)/(1+10^([N]−logEC 50 ^)), where [N] equals the concentration of added nucleotide, and F x/F max represents the fractional occupancy. Equilibrium constants for the competing ATP and ADP (K d ^N), were fitted using the equation: logEC50 = log(10^logK d ^N × (1+[TNP−ATP]/K d ^TNP−ATP)).

STRADα/MO25α complex = molecular target: T2, STRADα/MO25α complex (Homo sapiens, UniProt Q7RTN6); experiment: TNP-ATP saturation binding (fluorescence); details: No Mg2+
T2 construct: wild-type and mutant forms of STRADα (residues 54–431) and MO25α (residues 1–341) were expressed individually as GST fusion proteins in E. coli; GST (cleaved yes); made in house; host or cells: E. coli
T2 sequence (Q7RTN6 54-431): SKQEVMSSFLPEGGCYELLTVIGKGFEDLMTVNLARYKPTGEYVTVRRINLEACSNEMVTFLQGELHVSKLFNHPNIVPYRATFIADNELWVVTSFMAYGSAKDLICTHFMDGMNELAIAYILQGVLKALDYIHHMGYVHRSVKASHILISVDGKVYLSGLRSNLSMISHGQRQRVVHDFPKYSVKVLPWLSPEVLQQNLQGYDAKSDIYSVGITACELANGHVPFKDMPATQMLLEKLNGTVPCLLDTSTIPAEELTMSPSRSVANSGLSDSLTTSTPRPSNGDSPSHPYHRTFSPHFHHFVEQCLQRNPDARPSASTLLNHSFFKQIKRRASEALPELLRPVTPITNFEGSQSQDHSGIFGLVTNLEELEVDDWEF
T2 sequence (Q9Y376 1-341 partner): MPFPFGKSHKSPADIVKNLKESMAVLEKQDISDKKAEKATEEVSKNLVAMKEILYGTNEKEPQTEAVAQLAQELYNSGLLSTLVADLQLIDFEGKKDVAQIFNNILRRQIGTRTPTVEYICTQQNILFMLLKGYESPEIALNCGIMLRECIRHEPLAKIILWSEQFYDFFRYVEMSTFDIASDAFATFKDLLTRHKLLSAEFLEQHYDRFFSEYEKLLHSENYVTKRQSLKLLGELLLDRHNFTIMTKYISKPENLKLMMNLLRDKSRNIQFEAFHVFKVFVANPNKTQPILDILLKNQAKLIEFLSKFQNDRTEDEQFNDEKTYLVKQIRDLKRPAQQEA
Protocol: as §1, §2

[1] = molecular target: T3, His-STRADα (residues 59–431) (human, UniProt Q7RTN6 59-431, lysines chemically methylated in the 2.35 Å crystal form only); experiment: crystal structure; co-expressed His-STRADα(59–431)/MO25α(1–341) complex at 7.5 mg/ml with 10 mM ATP and 1 mM MgCl2, sitting drop; unmethylated crystals 4.8 Å, lysine-methylated crystals 2.35 Å, space group P212121; details: both partners purified
T3 construct: STRADα (STe-20 Related Adaptor alpha), human, residues 59–431; Crystallised both unmethylated (4.8 Å) and lysine-methylated (2.35 Å, PDB 3GNI); unmethylated in SPR; also called N-terminally 6-His-tagged STRADα; His-tagged STRADα; source: E. coli BL21(DE3)pLysS, coexpressed with untagged MO25α, purified (Ni2+ IMAC, Superdex 75); for SPR separated from MO25α on Ni2+-agarose (500 mM NaCl washes, …)
T3 sequence (looked up): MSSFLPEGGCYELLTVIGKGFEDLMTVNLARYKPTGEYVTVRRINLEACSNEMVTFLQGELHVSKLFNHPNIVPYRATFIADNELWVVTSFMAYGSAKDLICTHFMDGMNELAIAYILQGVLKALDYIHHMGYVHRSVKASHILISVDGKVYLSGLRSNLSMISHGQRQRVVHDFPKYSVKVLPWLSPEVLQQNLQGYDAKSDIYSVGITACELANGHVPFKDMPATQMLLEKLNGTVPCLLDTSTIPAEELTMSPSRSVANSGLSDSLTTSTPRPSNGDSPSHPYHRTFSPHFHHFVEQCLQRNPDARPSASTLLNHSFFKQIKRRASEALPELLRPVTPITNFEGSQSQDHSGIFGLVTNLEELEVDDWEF

[2] = molecular target: T4, untagged STRADα (residues 59–431) (human, UniProt Q7RTN6 59-431); experiment: SPR; as a2 but with 100 µM ATP and 1 mM MgCl2 (MgATP); details: both partners purified
T4 construct: STRADα, human, residues 59–431; also called STRADα lacking the His tag
T4 sequence (looked up): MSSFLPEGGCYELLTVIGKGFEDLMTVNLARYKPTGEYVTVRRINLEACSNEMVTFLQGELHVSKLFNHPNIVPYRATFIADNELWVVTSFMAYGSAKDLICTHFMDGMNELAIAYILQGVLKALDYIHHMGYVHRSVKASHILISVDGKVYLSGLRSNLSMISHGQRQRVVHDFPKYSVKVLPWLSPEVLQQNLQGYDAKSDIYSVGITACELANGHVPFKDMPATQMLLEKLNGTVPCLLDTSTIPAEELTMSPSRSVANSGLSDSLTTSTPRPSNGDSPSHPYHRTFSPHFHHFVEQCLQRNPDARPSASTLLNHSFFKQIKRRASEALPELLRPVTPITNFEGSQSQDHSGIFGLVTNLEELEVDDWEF

[3] = molecular target: T5, MO25α (M260A) (residues 1–341) (human, UniProt Q9Y376 1-341, M260A); experiment: SPR
T5 sequence: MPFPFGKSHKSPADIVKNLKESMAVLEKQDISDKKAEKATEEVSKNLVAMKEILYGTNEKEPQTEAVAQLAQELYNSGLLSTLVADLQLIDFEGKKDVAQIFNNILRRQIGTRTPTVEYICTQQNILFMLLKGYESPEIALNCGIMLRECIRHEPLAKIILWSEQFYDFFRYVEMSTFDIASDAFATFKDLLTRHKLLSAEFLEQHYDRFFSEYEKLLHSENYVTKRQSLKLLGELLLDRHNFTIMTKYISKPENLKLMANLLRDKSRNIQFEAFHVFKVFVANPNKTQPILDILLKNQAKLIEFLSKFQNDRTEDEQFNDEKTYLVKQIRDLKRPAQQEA

[4] = molecular target: T5, MO25α (M260A) (residues 1–341); experiment: SPR; ATP, Kd1
[5] = molecular target: T6, MO25α (R227A) (residues 1–341) (human, UniProt Q9Y376 1-341, R227A); experiment: SPR; ATP, Kd1
T6 sequence: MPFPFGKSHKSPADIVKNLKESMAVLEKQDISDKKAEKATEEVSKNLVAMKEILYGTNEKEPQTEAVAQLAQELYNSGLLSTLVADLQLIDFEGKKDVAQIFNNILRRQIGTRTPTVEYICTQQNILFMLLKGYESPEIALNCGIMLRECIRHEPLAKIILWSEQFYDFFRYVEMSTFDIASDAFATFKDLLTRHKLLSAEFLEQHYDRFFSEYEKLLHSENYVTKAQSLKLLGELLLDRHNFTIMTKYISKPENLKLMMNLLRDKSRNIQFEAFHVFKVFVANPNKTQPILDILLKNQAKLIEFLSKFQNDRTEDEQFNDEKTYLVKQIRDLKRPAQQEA

[6] = molecular target: T5, MO25α (M260A) (residues 1–341); experiment: SPR; ATP+Mg2+, Kd1
[7] = molecular target: T6, MO25α (R227A) (residues 1–341); experiment: SPR; ATP+Mg2+, Kd1
[8] = molecular target: T7, MO25α (WT) (residues 1–341) (human, UniProt Q9Y376 1-341); experiment: SPR; ATP+Mg2+, Kd1
T7 chain: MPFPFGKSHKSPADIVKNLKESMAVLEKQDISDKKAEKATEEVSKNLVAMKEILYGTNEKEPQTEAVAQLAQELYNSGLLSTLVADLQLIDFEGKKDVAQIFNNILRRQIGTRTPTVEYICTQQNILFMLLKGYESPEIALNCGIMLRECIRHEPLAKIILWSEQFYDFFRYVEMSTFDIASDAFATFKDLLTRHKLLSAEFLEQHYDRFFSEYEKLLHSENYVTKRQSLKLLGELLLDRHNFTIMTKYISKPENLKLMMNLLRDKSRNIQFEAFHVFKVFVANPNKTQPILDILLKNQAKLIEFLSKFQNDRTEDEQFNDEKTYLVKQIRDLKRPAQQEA

[9] = molecular target: T5, MO25α (M260A) (residues 1–341); experiment: SPR; ATP, Kd2 (second site)
[10] = molecular target: T5, MO25α (M260A) (residues 1–341); experiment: SPR; ATP+Mg2+, Kd2 (second site)
[11] = molecular target: T7, MO25α (WT) (residues 1–341); experiment: SPR; ATP+Mg2+, Kd2 (second site)

Molecule: Nc1ncnc2c1ncn2[C@@H]1O[C@H](COP(=O)(O)OP(=O)(O)OP(=O)(O)O)[C@H]2OC3(O[C@H]21)C([N+](=O)[O-])=CC(=[N+]([O-])[O-])C=C3[N+](=O)[O-] (some centres unmarked) [TNP-ATP, 2′,3′-O-2,4,6-trinitrophenyl-ATP]
Kd (STRADα; 0.5 mM Mg2+): 1300 ± 800 nM
Kd (STRADα; No Mg2+): 1100 nM
Kd (STRADα/MO25α complex): 90 ± 30 nM

B1: full-length MO25α (residues 1–341), untagged (natural protein, human, UniProt Q9Y376 1-341, looked up)
chain: MPFPFGKSHKSPADIVKNLKESMAVLEKQDISDKKAEKATEEVSKNLVAMKEILYGTNEKEPQTEAVAQLAQELYNSGLLSTLVADLQLIDFEGKKDVAQIFNNILRRQIGTRTPTVEYICTQQNILFMLLKGYESPEIALNCGIMLRECIRHEPLAKIILWSEQFYDFFRYVEMSTFDIASDAFATFKDLLTRHKLLSAEFLEQHYDRFFSEYEKLLHSENYVTKRQSLKLLGELLLDRHNFTIMTKYISKPENLKLMMNLLRDKSRNIQFEAFHVFKVFVANPNKTQPILDILLKNQAKLIEFLSKFQNDRTEDEQFNDEKTYLVKQIRDLKRPAQQEA
modifications: lysines chemically methylated in the 2.35 Å crystal form only
notes: MO25α, human, full length, residues 1–341; source: E. coli BL21(DE3)pLysS, coexpressed with His-STRADα, co-purified (Ni2+ IMAC, Superdex 75)
binding result [1]: binds

More lines, now with the values ahead:

binding result [2]: binds
B2: MO25α (R227A) (residues 1–341) (natural protein, human, UniProt Q9Y376 1-341, looked up)
chain: MPFPFGKSHKSPADIVKNLKESMAVLEKQDISDKKAEKATEEVSKNLVAMKEILYGTNEKEPQTEAVAQLAQELYNSGLLSTLVADLQLIDFEGKKDVAQIFNNILRRQIGTRTPTVEYICTQQNILFMLLKGYESPEIALNCGIMLRECIRHEPLAKIILWSEQFYDFFRYVEMSTFDIASDAFATFKDLLTRHKLLSAEFLEQHYDRFFSEYEKLLHSENYVTKAQSLKLLGELLLDRHNFTIMTKYISKPENLKLMMNLLRDKSRNIQFEAFHVFKVFVANPNKTQPILDILLKNQAKLIEFLSKFQNDRTEDEQFNDEKTYLVKQIRDLKRPAQQEA
notes: MO25α, human, residues 1–341 (full length), R227A; source: E. coli, expressed individually as GST fusion, purified on glutathione-Sepharose, eluted with PreScission protease

Kd [3]: 8100 nM
Kd [4]: 1500 nM
Kd [5]: 600 nM
Kd [6]: 2300 nM
Kd [7]: 800 nM
Kd [8]: 5100 nM
Kd [9]: 30 nM
Kd [10]: 82 nM
Kd [11]: 51 nM
B3: untagged STRADα (residues 59–431) (domain or fragment)
chain: MSSFLPEGGCYELLTVIGKGFEDLMTVNLARYKPTGEYVTVRRINLEACSNEMVTFLQGELHVSKLFNHPNIVPYRATFIADNELWVVTSFMAYGSAKDLICTHFMDGMNELAIAYILQGVLKALDYIHHMGYVHRSVKASHILISVDGKVYLSGLRSNLSMISHGQRQRVVHDFPKYSVKVLPWLSPEVLQQNLQGYDAKSDIYSVGITACELANGHVPFKDMPATQMLLEKLNGTVPCLLDTSTIPAEELTMSPSRSVANSGLSDSLTTSTPRPSNGDSPSHPYHRTFSPHFHHFVEQCLQRNPDARPSASTLLNHSFFKQIKRRASEALPELLRPVTPITNFEGSQSQDHSGIFGLVTNLEELEVDDWEF

— PMC2686265, “ATP and MO25α Regulate the Conformational State of the STRADα Pseudokinase and Activation of the LKB1 Tumour Suppressor” (PLoS Biology, 2009)
